Measurements from publication PMC3823998, “Structural and Functional Characterization of the Redβ Recombinase from Bacteriophage λ” (PLoS ONE, 2013).

Target: the molecule itself
Assay: SEC; Superdex 200 5/150 GL, 20 mM potassium phosphate pH 6.0, 10 mM MgCl2, 0.15 M NaCl; masses estimated from a calibration curve; self-association, no DNA

Protein	binding result	stoichiometry N
Redβ G78A (natural protein, bacteriophage λ, three residues (Gly-Ser-His) left before the initial methionine after thrombin removal of the tag; Redβ, recombinase of Enterobacteria phage λ, alanine substitution mutant; source: E. coli BL21(DE3), purified (HisTrap FF, thrombin digestion, HisTrap FF, Benzamidine FF); not shown: His6, N-terminal, cleaved) GSHMSTALATLAGKLAERVGMDSVDPQELITTLRQTAFKGDASDAQFIALLIVANQYGLNPWTKEIYAFPDKQNGIVPVVAVDGWSRIINENQQFDGMDFEQDNESCTCRIYRKDRNHPICVTEWMDECRREPFKTREGREITGPWQSHPKRMLRHKAMIQCARLAFGFAGIYDKDEAERIVENTAYTAERQPERDITPVNDETMQEINTLLIALDKTWDDDLLPLCSQIFRRDIRASSELTQAEAVKALGFLKQKAAEQKVAA	binds	–
Redβ K148A (natural protein, bacteriophage λ, three residues (Gly-Ser-His) left before the initial methionine after thrombin removal of the tag; Redβ, recombinase of Enterobacteria phage λ, alanine substitution mutant; By gel filtration complexes of approximately 3 subunits; source: E. coli BL21(DE3), purified (HisTrap FF, thrombin digestion, HisTrap FF, Benzamidine FF); not shown: His6, N-terminal, cleaved) GSHMSTALATLAGKLAERVGMDSVDPQELITTLRQTAFKGDASDAQFIALLIVANQYGLNPWTKEIYAFPDKQNGIVPVVGVDGWSRIINENQQFDGMDFEQDNESCTCRIYRKDRNHPICVTEWMDECRREPFKTREGREITGPWQSHPARMLRHKAMIQCARLAFGFAGIYDKDEAERIVENTAYTAERQPERDITPVNDETMQEINTLLIALDKTWDDDLLPLCSQIFRRDIRASSELTQAEAVKALGFLKQKAAEQKVAA	–	~3 subunits
Redβ V77A (natural protein, bacteriophage λ, three residues (Gly-Ser-His) left before the initial methionine after thrombin removal of the tag; Redβ, recombinase of Enterobacteria phage λ, alanine substitution mutant; source: E. coli BL21(DE3), purified (HisTrap FF, thrombin digestion, HisTrap FF, Benzamidine FF); not shown: His6, N-terminal, cleaved) GSHMSTALATLAGKLAERVGMDSVDPQELITTLRQTAFKGDASDAQFIALLIVANQYGLNPWTKEIYAFPDKQNGIVPVAGVDGWSRIINENQQFDGMDFEQDNESCTCRIYRKDRNHPICVTEWMDECRREPFKTREGREITGPWQSHPKRMLRHKAMIQCARLAFGFAGIYDKDEAERIVENTAYTAERQPERDITPVNDETMQEINTLLIALDKTWDDDLLPLCSQIFRRDIRASSELTQAEAVKALGFLKQKAAEQKVAA	binds	–
Redβ Y64A (natural protein, bacteriophage λ, three residues (Gly-Ser-His) left before the initial methionine after thrombin removal of the tag; Redβ, recombinase of Enterobacteria phage λ, alanine substitution mutant; source: E. coli BL21(DE3), purified (HisTrap FF, thrombin digestion, HisTrap FF, Benzamidine FF); not shown: His6, N-terminal, cleaved) GSHMSTALATLAGKLAERVGMDSVDPQELITTLRQTAFKGDASDAQFIALLIVANQYGLNPWTKEIAAFPDKQNGIVPVVGVDGWSRIINENQQFDGMDFEQDNESCTCRIYRKDRNHPICVTEWMDECRREPFKTREGREITGPWQSHPKRMLRHKAMIQCARLAFGFAGIYDKDEAERIVENTAYTAERQPERDITPVNDETMQEINTLLIALDKTWDDDLLPLCSQIFRRDIRASSELTQAEAVKALGFLKQKAAEQKVAA	binds	–
Redβ D80A (natural protein, bacteriophage λ, three residues (Gly-Ser-His) left before the initial methionine after thrombin removal of the tag; Redβ, recombinase of Enterobacteria phage λ, alanine substitution mutant; source: E. coli BL21(DE3), purified (HisTrap FF, thrombin digestion, HisTrap FF, Benzamidine FF); not shown: His6, N-terminal, cleaved) GSHMSTALATLAGKLAERVGMDSVDPQELITTLRQTAFKGDASDAQFIALLIVANQYGLNPWTKEIYAFPDKQNGIVPVVGVAGWSRIINENQQFDGMDFEQDNESCTCRIYRKDRNHPICVTEWMDECRREPFKTREGREITGPWQSHPKRMLRHKAMIQCARLAFGFAGIYDKDEAERIVENTAYTAERQPERDITPVNDETMQEINTLLIALDKTWDDDLLPLCSQIFRRDIRASSELTQAEAVKALGFLKQKAAEQKVAA	binds	–
Redβ K132A (natural protein, bacteriophage λ, three residues (Gly-Ser-His) left before the initial methionine after thrombin removal of the tag; Redβ, recombinase of Enterobacteria phage λ, alanine substitution mutant; source: E. coli BL21(DE3), purified (HisTrap FF, thrombin digestion, HisTrap FF, Benzamidine FF); not shown: His6, N-terminal, cleaved) GSHMSTALATLAGKLAERVGMDSVDPQELITTLRQTAFKGDASDAQFIALLIVANQYGLNPWTKEIYAFPDKQNGIVPVVGVDGWSRIINENQQFDGMDFEQDNESCTCRIYRKDRNHPICVTEWMDECRREPFATREGREITGPWQSHPKRMLRHKAMIQCARLAFGFAGIYDKDEAERIVENTAYTAERQPERDITPVNDETMQEINTLLIALDKTWDDDLLPLCSQIFRRDIRASSELTQAEAVKALGFLKQKAAEQKVAA	binds	–
Redβ V79A (natural protein, bacteriophage λ, three residues (Gly-Ser-His) left before the initial methionine after thrombin removal of the tag; Redβ, recombinase of Enterobacteria phage λ, alanine substitution mutant; source: E. coli BL21(DE3), purified (HisTrap FF, thrombin digestion, HisTrap FF, Benzamidine FF); not shown: His6, N-terminal, cleaved) GSHMSTALATLAGKLAERVGMDSVDPQELITTLRQTAFKGDASDAQFIALLIVANQYGLNPWTKEIYAFPDKQNGIVPVVGADGWSRIINENQQFDGMDFEQDNESCTCRIYRKDRNHPICVTEWMDECRREPFKTREGREITGPWQSHPKRMLRHKAMIQCARLAFGFAGIYDKDEAERIVENTAYTAERQPERDITPVNDETMQEINTLLIALDKTWDDDLLPLCSQIFRRDIRASSELTQAEAVKALGFLKQKAAEQKVAA	binds	–
Redβ K69A (natural protein, bacteriophage λ, three residues (Gly-Ser-His) left before the initial methionine after thrombin removal of the tag; Redβ, recombinase of Enterobacteria phage λ, alanine substitution mutant; source: E. coli BL21(DE3), purified (HisTrap FF, thrombin digestion, HisTrap FF, Benzamidine FF); not shown: His6, N-terminal, cleaved) GSHMSTALATLAGKLAERVGMDSVDPQELITTLRQTAFKGDASDAQFIALLIVANQYGLNPWTKEIYAFPDAQNGIVPVVGVDGWSRIINENQQFDGMDFEQDNESCTCRIYRKDRNHPICVTEWMDECRREPFKTREGREITGPWQSHPKRMLRHKAMIQCARLAFGFAGIYDKDEAERIVENTAYTAERQPERDITPVNDETMQEINTLLIALDKTWDDDLLPLCSQIFRRDIRASSELTQAEAVKALGFLKQKAAEQKVAA	binds	–
Redβ R149A (natural protein, bacteriophage λ, three residues (Gly-Ser-His) left before the initial methionine after thrombin removal of the tag; Redβ, recombinase of Enterobacteria phage λ, alanine substitution mutant; By gel filtration complexes of approximately 3 subunits; source: E. coli BL21(DE3), purified (HisTrap FF, thrombin digestion, HisTrap FF, Benzamidine FF); not shown: His6, N-terminal, cleaved) GSHMSTALATLAGKLAERVGMDSVDPQELITTLRQTAFKGDASDAQFIALLIVANQYGLNPWTKEIYAFPDKQNGIVPVVGVDGWSRIINENQQFDGMDFEQDNESCTCRIYRKDRNHPICVTEWMDECRREPFKTREGREITGPWQSHPKAMLRHKAMIQCARLAFGFAGIYDKDEAERIVENTAYTAERQPERDITPVNDETMQEINTLLIALDKTWDDDLLPLCSQIFRRDIRASSELTQAEAVKALGFLKQKAAEQKVAA	–	~3 subunits
Redβ R152A (natural protein, bacteriophage λ, three residues (Gly-Ser-His) left before the initial methionine after thrombin removal of the tag; Redβ, recombinase of Enterobacteria phage λ, alanine substitution mutant; source: E. coli BL21(DE3), purified (HisTrap FF, thrombin digestion, HisTrap FF, Benzamidine FF); not shown: His6, N-terminal, cleaved) GSHMSTALATLAGKLAERVGMDSVDPQELITTLRQTAFKGDASDAQFIALLIVANQYGLNPWTKEIYAFPDKQNGIVPVVGVDGWSRIINENQQFDGMDFEQDNESCTCRIYRKDRNHPICVTEWMDECRREPFKTREGREITGPWQSHPKRMLAHKAMIQCARLAFGFAGIYDKDEAERIVENTAYTAERQPERDITPVNDETMQEINTLLIALDKTWDDDLLPLCSQIFRRDIRASSELTQAEAVKALGFLKQKAAEQKVAA	binds	–

Target: the molecule itself
Assay: native gel or EMSA; native PAGE, 10 µg protein per lane (20 µg in Figure S3), 5-20% gradient polyacrylamide gel, 25 mM Tris, 192 mM glycine, Coomassie stain; self-association, no DNA

Protein	binding result
Redβ wild-type (WT) protein from bacteriophage λ (natural protein, three residues (Gly-Ser-His) left before the initial methionine after thrombin removal of the tag; Redβ, recombinase of Enterobacteria phage λ, bet gene amplified from phage λ genomic DNA, in pET14b; Forms multimers; subunit about 30 kDa; also called Redβ WT; source: E. coli BL21(DE3), purified (HisTrap FF, thrombin digestion, HisTrap FF, Benzamidine FF); not shown: His6, N-terminal, cleaved) GSHMSTALATLAGKLAERVGMDSVDPQELITTLRQTAFKGDASDAQFIALLIVANQYGLNPWTKEIYAFPDKQNGIVPVVGVDGWSRIINENQQFDGMDFEQDNESCTCRIYRKDRNHPICVTEWMDECRREPFKTREGREITGPWQSHPKRMLRHKAMIQCARLAFGFAGIYDKDEAERIVENTAYTAERQPERDITPVNDETMQEINTLLIALDKTWDDDLLPLCSQIFRRDIRASSELTQAEAVKALGFLKQKAAEQKVAA	binds
Redβ K172A (natural protein, bacteriophage λ, three residues (Gly-Ser-His) left before the initial methionine after thrombin removal of the tag; Redβ, recombinase of Enterobacteria phage λ, alanine substitution mutant; source: E. coli BL21(DE3), purified (HisTrap FF, thrombin digestion, HisTrap FF, Benzamidine FF); not shown: His6, N-terminal, cleaved) GSHMSTALATLAGKLAERVGMDSVDPQELITTLRQTAFKGDASDAQFIALLIVANQYGLNPWTKEIYAFPDKQNGIVPVVGVDGWSRIINENQQFDGMDFEQDNESCTCRIYRKDRNHPICVTEWMDECRREPFKTREGREITGPWQSHPKRMLRHKAMIQCARLAFGFAGIYDADEAERIVENTAYTAERQPERDITPVNDETMQEINTLLIALDKTWDDDLLPLCSQIFRRDIRASSELTQAEAVKALGFLKQKAAEQKVAA	binds
Redβ R161A (natural protein, bacteriophage λ, three residues (Gly-Ser-His) left before the initial methionine after thrombin removal of the tag; Redβ, recombinase of Enterobacteria phage λ, alanine substitution mutant; source: E. coli BL21(DE3), purified (HisTrap FF, thrombin digestion, HisTrap FF, Benzamidine FF); not shown: His6, N-terminal, cleaved) GSHMSTALATLAGKLAERVGMDSVDPQELITTLRQTAFKGDASDAQFIALLIVANQYGLNPWTKEIYAFPDKQNGIVPVVGVDGWSRIINENQQFDGMDFEQDNESCTCRIYRKDRNHPICVTEWMDECRREPFKTREGREITGPWQSHPKRMLRHKAMIQCAALAFGFAGIYDKDEAERIVENTAYTAERQPERDITPVNDETMQEINTLLIALDKTWDDDLLPLCSQIFRRDIRASSELTQAEAVKALGFLKQKAAEQKVAA	binds
